This is an account of results in paper PMC10267887.

The target of test [1] is fibroblast growth factor 2 fused to GFP (FGF2-GFP), His-tagged (UniProt P09038). Nature of the test: dual(+1)-FCS (brightness analysis by fluorescence correlation spectroscopy); as a1; FINAL state (t >= 240 min), (leaky to leaky) GUVs only.
The target is the same in test [2]. Nature of the test: dual(+1)-FCS (brightness analysis by fluorescence correlation spectroscopy); as a1; INITIAL state (t = 60-120 min), leaky, (leaky to leaky) GUVs.
The target is the same in test [3]. Nature of the test: dual(+1)-FCS (brightness analysis by fluorescence correlation spectroscopy); 200 nM FGF2-GFP on immobilised GUVs of plasma-membrane-like lipids with 2 mol % PI(4,5)P2, HEPES buffer (25 mM HEPES, 150 mM NaCl, pH 7.4); average oligomeric state per GUV; FINAL state (t >= 240 min), permeabilized (leaky) GUVs.

“And” between values parts separate entries of the source, which are not always exact repeats. Identical values can stand only once.

Turning to “fibroblast growth factor 2 fused to GFP (FGF2-GFP), His-tagged (from UniProt P09038 1-288) (natural protein)”, the stoichiometry N in test [1] was < 10 m.u. and 4.21 m.u; in test [2] it was 2 and 6; in test [3], 2 and 6.

Usually stoichiometry N stands for the number of molecules, sites or subunits per partner or assembly.
